{
  "source": "patent JP2010011840A",
  "about": "(dated 2010)",
  "molecular_target": "T1, CDR1抗原ペプチド(RSSKSLLYSNGNTYLY)",
  "T1 peptide": "RSSKSLLYSNGNTYLY",
  "assay": "cell-based or functional assay",
  "data": [
    {"binder": "i41SL1-2抗体の重鎖(i41SL1-2-H) (other, not shown: a dimerising Fc or GST, reduced with 0.2 M β-mercaptoethanol and alkylated with 0.3 M iodoacetamide (positions not stated)) heavy: QVQLQHSGAELVRPGSSVKVSCKALGYTSTDYEIHWVKQTPVRGLEWIGAIHPGSDVIVYNQKFKGTATLTADKSSSTAYMELRSLTSEDSAVYYCTREGGSVDYVWGQGTLVTVSA", "values": [
      {"measurement": "回転数(kcat)", "value": "~0.005 ratio to trypsin"},
      {"measurement": "触媒効率(kcat/Km)", "value": "~0.1 ratio to trypsin"}
    ]},
    {"binder": "i41SL1-2抗体の軽鎖(i41SL1-2-L) (other, not shown: a dimerising Fc or GST, reduced with 0.2 M β-mercaptoethanol and alkylated with 0.3 M iodoacetamide (positions not stated)) light: DIVMTQTQLTLTINIGQPASISCKSSQSLLDSDGKTYLNWLFQRPGQSPKRLIYLVSKLDSGVPDRFTGSGSGTDFTLKISRVEAEDLGVYYCWQGTHFPLTFGAGTKLELRRA", "values": [
      {"measurement": "回転数(kcat)", "value": "~0.005 ratio to trypsin"}
    ]}
  ]
}
